± gives the uncertainty stated by the source.
Test: protein stability index of a GFP-peptide fusion (yeast GPS) (PSI 1-4); higher = more stable; sorted into four equal gates, so the index is relative within each strain
Conditions: doa10∆
Outline: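 Sequencing reads from sorted gates were used to score each peptide. The library consisted of tiled 17-residue yeast protein peptides fused downstream of GFP on a Cherry-expressing plasmid, pooled and carried in yeast. Mid-log cultures in leucine-free medium were split into four equal gates by GFP/Cherry ratio, and each gate's plasmids were PCR-amplified and Illumina-sequenced. The protein stability index adds up, over all gates, the read frequency multiplied by the gate number.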

Row | Sequence | protein stability index
1 | SEETQFKYVEDRFPLKL [ITC1] | 3.47 ± 0.13
2 | SEFLNVPFESLQGVTYP [YIL149C/MLP2] | 2.94 ± 0.086
3 | SEGEQKSAEGNNIDQSL [YAR002W/NUP60] | 2.98 ± 0.063
4 | SEGSGSSLVQKGLETID [RPC53] | 3.35 ± 0.16
5 | SEGYQKTFSRLDALTRH [RPN4] | 1.17 ± 0.091
6 | SEISDGKLKRCSRCGSV [SIN4] | 3.33 ± 0.17
7 | SEVRKAVSIETALEHKV [FAS2] | 1.67 ± 0.12
8 | SFALPFEEDEKNSDVWF [RPN8] | 3.28 ± 0.08
9 | SFCGFLLYYIPSLELSA [YJR042W/NUP85] | 1.65 ± 0.051
10 | SFDAVSDSIELLKQYPK [YJR042W/NUP85] | 2.86 ± 0.083
11 | SFHVQKKTCSSCGYPAA [RPL37A] | 1.85 ± 0.091
12 | SFILSSLEDPQVRKKQI [YDL116W/NUP84] | 1.94 ± 0.11
13 | SFKIFVDVLVISSHSHP [RRP42] | 1.21 ± 0.043
14 | SFLEKPKFAIQDNHHIT [YMR129W/POM152] | 2.89 ± 0.074
15 | SFLKEGDLLNAEVQSLF [RRP4] | 2.57 ± 0.058
16 | SFLSKHALYLAPSGIRM [SSN2] | 2.12 ± 0.067
17 | SFNIPRLTFKPWVVYLQ [YMR129W/POM152] | 1.2 ± 0.055
18 | SFQKKSNDKVVEWINPS [ISW2] | 3.12 ± 0.069
19 | SFTNYITRSFKEPRLVI [RPS0A] | 2.74 ± 0.09
20 | SFTSATERHIQVGDGLE [PRE7] | 2.79 ± 0.098
21 | SGCENITDKTIESIVNL [GRR1] | 2.81 ± 0.13
22 | SGEDAEEELWNSPSKGN [YIL149C/MLP2] | 3.15 ± 0.13
23 | SGIRLIEPELFNGYNPE [FAS2] | 2.81 ± 0.067
24 | SGKSNFFAAIRFVLSDD [SMC3] | 3.02 ± 0.11
25 | SGNDSMAGKVLILTSHN [BRR2] | 2.13 ± 0.058
26 | SGRNIHLAVVCVDDNSK [SSN2] | 2.14 ± 0.087

Row | Sequence | protein stability index
27 | SGTDGSTIGILLLTIQL [SRP72] | 3.09 ± 0.064
28 | SGWTPFHIACSVGNLEV [NAS6] | 1.8 ± 0.095
29 | SHAVEFFMSERSSRLHI [YML103C/NUP188] | 2.5 ± 0.067
30 | SHEERIEAIDEYNKPNS [ISW2] | 2.01 ± 0.063
31 | SIEFAKREKRVFLKHSL [RPN6] | 3.24 ± 0.16
32 | SIEMEEETDDEDKQNIE [RRI2] | 3.25 ± 0.13
33 | SIGASIADLASLEQLLG [YCS4] | 2.84 ± 0.099
34 | SIHAHGSTDVGYYLSLG [PUP1] | 2.62 ± 0.069
35 | SILEHSGIRLIEPELFN [FAS2] | 2.67 ± 0.068
36 | SIMAVTFKDGVILGADS [PRE3] | 1.66 ± 0.1
37 | SIQPIESNIKMTLEDNN [SSN2] | 3.12 ± 0.077
38 | SIVLDSEHFDVNDNPDI [DIS3] | 2.96 ± 0.053
39 | SIWQVKDQLPDLESMGL [MED7] | 2.81 ± 0.11
40 | SKALNSILESSMFLRID [RGR1] | 2.42 ± 0.16
41 | SKDIETLKKEWLKEYED [YIL149C/MLP2] | 3.34 ± 0.093
42 | SKGSFINIAQMSACVGQ [RPO21] | 1.44 ± 0.059
43 | SKICLSHFSLDQFITSL [ITC1] | 2.21 ± 0.06
44 | SKIFNESFPDDIPLAKA [CDC53] | 2.68 ± 0.056
45 | SKISQMAQNKTHIPQTN [YLR018C/POM34] | 1.83 ± 0.24
46 | SKKAEKTGTKPAAVFAE [RPL4B] | 2.52 ± 0.068
47 | SKLDIYTQQQALEYIGA [RET1] | 1.94 ± 0.12
48 | SKLEGTINKAVQVKVLG [ESC2] | 1.57 ± 0.11
49 | SKLLYDDVTCDKLSVSE [SIN4] | 3.08 ± 0.07
50 | SKLSEHLNHYILLRYHH [YCG1] | 2.16 ± 0.067
51 | SKLSKNISFYKLHVNWN [SIN4] | 2.04 ± 0.076
